Test results from PMC5384396 (Oncoimmunology, 2017).

How the values were obtained:
[1] = biological target: T1, hGITR on hGITR-transfected Jurkat cells (human, UniProt Q9Y5U5 26-241); test: cell-based or functional assay
T1 sequence: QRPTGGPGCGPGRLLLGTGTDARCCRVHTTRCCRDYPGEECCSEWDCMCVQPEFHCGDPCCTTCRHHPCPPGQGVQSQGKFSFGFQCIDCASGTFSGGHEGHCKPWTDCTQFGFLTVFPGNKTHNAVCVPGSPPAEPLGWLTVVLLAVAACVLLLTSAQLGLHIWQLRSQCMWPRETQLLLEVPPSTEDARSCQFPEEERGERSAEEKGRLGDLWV

[2] = biological target: the molecule itself

B1: hGITRL FP with the yeast GCN4 pII trimerization domain (Fc fusion)
chain: not shown
- NFκB-luciferase reporter in hGITR-transfected Jurkat cells, agonism EC50 [1]: 0.89 nM
- stoichiometry N [2]: 6
